Results reported in the supplement of paper PMC7125110.
± gives the standard error. For some of these results: Fewer inactive variants are shown than the library holds.

B1: glmS ribozyme (parent)
chain: AUAAAAGCGCCAGAACUACAGAAAUGUAGUUGACGAGGAGGAGGUUUAUCGAAUUUUCGGCGGAUGCCUCCAAA

Experiments:
Conditions in all cases: with glucosamine-6-phosphate
glucosamine-6-phosphate [1] = variants of: B1; assay: kcat; higher = faster cleavage; RNA array
How it was run: (§1)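 kcat and KM were obtained from weighted Michaelis–Menten fits across concentrations of kobs values. Those came from one- or two-exponential decay fits to per-tile medians normalised to baseline and to non-cleaving reference variants. The variants were barcoded ribozymes transcribed in situ by E. coli RNA polymerase on sequenced MiSeq chips and tracked through a hybridised Cy3 probe at 37 °C, with 40 μM to 10 mM glucosamine-6-phosphate in HEPES/KCl/Mg(OAc)2 buffer flowed in.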

glucosamine-6-phosphate [2] = variants of: B1; assay: KM; higher = weaker cofactor use; RNA array
How it was run: as §1

glucosamine-6-phosphate [3] = variants of: B1; assay: self-cleavage kobs at 640 uM GlcN6P; higher = faster cleavage; RNA array
How it was run: as §1

glucosamine-6-phosphate [4] = variants of: B1; assay: self-cleavage kobs at 2500 uM GlcN6P; higher = faster cleavage; RNA array
How it was run: as §1

glucosamine-6-phosphate [5] = variants of: B1; assay: self-cleavage kobs at 10000 uM GlcN6P; higher = faster cleavage; RNA array
How it was run: as §1

glucosamine-6-phosphate [6] = variants of: B1; assay: self-cleavage kobs at 40 uM GlcN6P; higher = faster cleavage; RNA array
How it was run: as §1

glucosamine-6-phosphate [7] = variants of: B1; assay: self-cleavage kobs at 160 uM GlcN6P; higher = faster cleavage; RNA array
How it was run: as §1

Variant	kcat (glucosamine-6-phosphate [1])	KM (glucosamine-6-phosphate [2])	self-cleavage kobs at 640 uM GlcN6P (glucosamine-6-phosphate [3])	self-cleavage kobs at 2500 uM GlcN6P (glucosamine-6-phosphate [4])	self-cleavage kobs at 10000 uM GlcN6P (glucosamine-6-phosphate [5])	self-cleavage kobs at 40 uM GlcN6P (glucosamine-6-phosphate [6])	self-cleavage kobs at 160 uM GlcN6P (glucosamine-6-phosphate [7])
A14C C58A	0.000221 ± 1.4e-05 s⁻¹	3.25 ± 0.5 mM	3.29e-05 ± 1.1e-05 s⁻¹	0.000102 ± 1.6e-05 s⁻¹	0.000165 ± 1.7e-05 s⁻¹	–	–
G13U U47C	7.04e-05 ± 3.2e-06 s⁻¹	1.03 ± 0.15 mM	2.85e-05 ± 1.2e-05 s⁻¹	4.74e-05 ± 1.2e-05 s⁻¹	6.59e-05 ± 1.6e-05 s⁻¹	–	–
G13U U47G	0.000262 ± 5.2e-05 s⁻¹	2.42 ± 0.89 mM	4.72e-05 ± 7.2e-06 s⁻¹	0.000158 ± 1.5e-05 s⁻¹	0.00019 ± 2.5e-05 s⁻¹	–	–
G13U U55G	0.00153 ± 0.00021 s⁻¹	3.83 ± 0.78 mM	0.000195 ± 2.5e-05 s⁻¹	0.000643 ± 7.1e-05 s⁻¹	0.00109 ± 0.00011 s⁻¹	2.48e-05 ± 7.6e-06 s⁻¹	6.37e-05 ± 8.5e-06 s⁻¹
G13U U69A	4.51e-05 ± 1.2e-05 s⁻¹	–	–	6.1e-05 ± 1.3e-05 s⁻¹	3.28e-05 ± 1.1e-05 s⁻¹	–	–
G13U U69G	2.13e-05 ± 6.6e-06 s⁻¹	–	–	–	–	–	–
G13U C67U	0.000313 ± 1.9e-05 s⁻¹	1.68 ± 0.23 mM	8.78e-05 ± 1.1e-05 s⁻¹	0.000177 ± 2e-05 s⁻¹	0.000274 ± 2.4e-05 s⁻¹	–	2.74e-05 ± 7.6e-06 s⁻¹
G13U A36C	< 1e-05 s⁻¹	–	–	–	< 1e-05 s⁻¹	–	–
G13C A14G	0.00129 ± 0.00022 s⁻¹	3.98 ± 0.95 mM	0.000189 ± 2.5e-05 s⁻¹	0.000557 ± 7.3e-05 s⁻¹	0.000855 ± 0.00013 s⁻¹	–	4.16e-05 ± 8.8e-06 s⁻¹
A14C U45G	0.00127 ± 0.00013 s⁻¹	3.41 ± 0.6 mM	0.000181 ± 2.6e-05 s⁻¹	0.000606 ± 9.4e-05 s⁻¹	0.000933 ± 9.1e-05 s⁻¹	–	6.63e-05 ± 1.5e-05 s⁻¹
G13A G40A	0.000179 ± 1.9e-05 s⁻¹	6.1 ± 1.2 mM	–	5.48e-05 ± 1.2e-05 s⁻¹	0.00011 ± 1.8e-05 s⁻¹	–	–
G13A G40C	5.83e-05 ± 8.4e-06 s⁻¹	2.94 ± 1.1 mM	–	2.55e-05 ± 7.4e-06 s⁻¹	4.56e-05 ± 9.9e-06 s⁻¹	< 1e-05 s⁻¹	–
A14C A15G G40U	0.000605 ± 0.0002 s⁻¹	5.38 ± 2.7 mM	8.18e-05 ± 1.4e-05 s⁻¹	0.000171 ± 2.4e-05 s⁻¹	0.000428 ± 7.3e-05 s⁻¹	–	–
A14C G26A	0.00194 ± 0.00022 s⁻¹	1.03 ± 0.19 mM	0.000887 ± 0.00023 s⁻¹	0.00142 ± 0.00041 s⁻¹	0.00166 ± 0.00037 s⁻¹	6.7e-05 ± 1.7e-05 s⁻¹	–
A14C C16U	0.00104 ± 0.00016 s⁻¹	0.922 ± 0.25 mM	0.000451 ± 4.8e-05 s⁻¹	0.000655 ± 7.7e-05 s⁻¹	0.00118 ± 0.00016 s⁻¹	5.34e-05 ± 1.1e-05 s⁻¹	0.000144 ± 1.9e-05 s⁻¹
